One molecule from patent US10253089B2, “Matrix metalloproteinase cleavable protein polymers for cancer gene therapy” (The University of Utah Research Foundation, priority 2012, dated 2019) can be followed below.

The test system of one data set is JHU-022 tumors. Kind of data set: GDEPT (HSV-tk/GCV) efficacy study, tumor size and luciferase imaging. In kind it is in vivo, nude mice. Particulars: 4 wt % with virus + GCV. The protocol: In order to fully illustrate the potential of SELP as an injectable, in situ gel forming delivery system for the treatment of HNSCC solid tumors, a study was performed on the efficacy of this system using a GDEPT approach. The system chosen was herpes simplex virus thymidine kinase (HSV-tk) as the enzyme, and ganciclovir (GCV) as the prodrug. To accomplish this, a custom adenoviral construct was designed and used for this study. The construct contained genes which encode for HSV-tk and genes which encode for luciferase, a common reporter enzyme. This novel construct allowed both efficacy and biodistribution to be assessed simultaneously in vivo. Specifically, by combining these two genes in one virus, it becomes possible to track the location of transfection while simultaneously evaluating the efficacy of the treatment.
Appropriate controls were included. Luciferase expression was measured by injecting luciferin potassium salt intraperitoneally, and following appropriate time to allow distribution of luciferin the animals were imaged using a Xenogen IVIS100 imaging system (Caliper Life Sciences, Hopkinton, Mass.) which allows visualization of luciferase expression without sacrificing the animal. As a measure of efficacy the tumors were measured with calipers every 3 to 4 days. […]

For the next data set, the target named is T1, MMP-2 (Homo sapiens, UniProt P08253).
T1 sequence (P08253 110-660): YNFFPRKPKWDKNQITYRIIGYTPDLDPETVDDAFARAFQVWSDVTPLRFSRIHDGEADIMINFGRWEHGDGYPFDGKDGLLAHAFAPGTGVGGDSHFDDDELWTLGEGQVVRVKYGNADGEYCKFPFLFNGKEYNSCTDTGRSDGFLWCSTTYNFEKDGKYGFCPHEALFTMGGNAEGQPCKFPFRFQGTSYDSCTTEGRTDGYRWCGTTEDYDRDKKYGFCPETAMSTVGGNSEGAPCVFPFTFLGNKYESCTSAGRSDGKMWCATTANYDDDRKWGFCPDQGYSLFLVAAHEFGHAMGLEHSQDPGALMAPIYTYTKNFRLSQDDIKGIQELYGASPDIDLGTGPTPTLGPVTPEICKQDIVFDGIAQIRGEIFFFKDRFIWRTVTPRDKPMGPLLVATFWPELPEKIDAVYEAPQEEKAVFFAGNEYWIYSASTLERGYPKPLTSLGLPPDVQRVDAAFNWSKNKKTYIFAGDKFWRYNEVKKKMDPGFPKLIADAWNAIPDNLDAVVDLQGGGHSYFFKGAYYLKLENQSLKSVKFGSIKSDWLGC
Kind of data set: Enzymatic digest of polymer by MMP-2, SDS-PAGE. In kind it is biochemical. Particulars: 1 mg/ml polymer, 10 nM and 40 nM MMP-2, 2-48 hours, room temperature. On the procedure: This buffer recipe is sourced from the Molecular Probes EnzChek Gelatinase/Collagenase Assay Kit (Invitrogen, Carlsbad, Calif.), which was used to confirm the activity of MMP-2 and MMP-9 prior to use. 2× Laemmli Buffer was supplemented with 5% β-mercaptoethanol and added 1:1 by volume to the polymer solutions, which were then placed in a PCR thermal cycler and heated to 95° C. for five minutes to denature the protein. 25 μl of each sample was added to 4-15% Bis-Tris precast PAGE gel and electrophoresis was performed at 200V until the dye front reached the bottom of the gel, approximately 30 minutes. Kaleidoscope protein standard was used as a molecular weight marker. Following electrophoresis, gels were stained with GelCode Blue (colloidal Coomassie formulation) following manufacturer's instructions for staining and destaining.
100 μl samples of each polymer were digested with a final concentration of 10 nM and 40 nM MMP-2 or MMP-9. MMP samples were incubated at room temperature for 2, 4, 12, 24, 36, and 48 hours and samples were run on PAGE gels and stained with GelCode Blue to visualize band patterns corresponding to protein degradation.
Additionally, this digestion is dependent on both time of exposure and concentration of MMP.

Data set [1] in a line: 12 week subchronic toxicity study. In kind it is in vivo, CD-1 immunocompetent mice. On the procedure:
Mice were anesthetized and maintained under anesthesia with 3% isofluorane in oxygen. After shaving and cleaning the injection site with 60% isopropanol, mice were subcutaneously injected in the right flank with 50 μl of solution using a 250 μl Hamilton syringe with a 26G needle. […] The injection site was gently clamped for 10 seconds to prevent leakage, after which mice were returned to their cages. For consistency, the day of viral injection was defined as day 0.
For treatment groups, a suspension of 1 mg GCV (Sigma Aldrich, St. Louis, Mo.) per ml of 0.9% physiological saline was prepared and sterilized through a 0.22 μm filter. Each day, animal weights were recorded, injection sites cleaned with 60% isopropanol, and mice injected i.p. with 1 mg/ml GCV suspension through a 26G needle sufficient for a total dose of 25 mg/kg body weight. Average dosing volume for these studies was approximately 0.6 ml. Mice were injected daily for the first four weeks of the 12 week recovery study, and for the entirety of the 1, 2, and 4 week studies.
The results for the 12 week subchronic toxicity study (FIG. 18) reveal many interesting points about SELP and its ability to improve the Ad.HSVtk/GCV toxicity profile. […]

B1: SELP815K: silk-elastin-like protein polymer, longer silk units, fifteen elastin units, lysine elastin unit; monomer repeated 6 times (SEQ ID NO. 21) (protein)
chain: MDPVVLQRRDWENPGVTQLNRLAAHPPFASDPMGAGSGAGAGSGAGAGSGVGVPGVGVPGVGVPGVGVPGKGVPGVGVPGVGVPGVGVPGVGVPGVGVPGVGVPGVGVPGVGVPGVGVPGVGVPGVGVPGAGAGSGAGAGSGAGAGSGAGAGSGAGAGSGAGAGAGSGAGAGSGAGAGSGVGVPGVGVPGVGVPGVGVPGKGVPGVGVPGVGVPGVGVPGVGVPGVGVPGVGVPGVGVPGVGVPGVGVPGVGVPGVGVPGAGAGSGAGAGSGAGAGSGAGAGSGAGAGSGAGAGAGSGAGAGSGAGAGSGVGVPGVGVPGVGVPGVGVPGKGVPGVGVPGVGVPGVGVPGVGVPGVGVPGVGVPGVGVPGVGVPGVGVPGVGVPGVGVPGAGAGSGAGAGSGAGAGSGAGAGSGAGAGSGAGAGAGSGAGAGSGAGAGSGVGVPGVGVPGVGVPGVGVPGKGVPGVGVPGVGVPGVGVPGVGVPGVGVPGVGVPGVGVPGVGVPGVGVPGVGVPGVGVPGAGAGSGAGAGSGAGAGSGAGAGSGAGAGSGAGAGAGSGAGAGSGAGAGSGVGVPGVGVPGVGVPGVGVPGKGVPGVGVPGVGVPGVGVPGVGVPGVGVPGVGVPGVGVPGVGVPGVGVPGVGVPGVGVPGAGAGSGAGAGSGAGAGSGAGAGSGAGAGSGAGAGAGSGAGAGSGAGAGSGVGVPGVGVPGVGVPGVGVPGKGVPGVGVPGVGVPGVGVPGVGVPGVGVPGVGVPGVGVPGVGVPGVGVPGVGVPGVGVPGAGAGSGAGAGSGAGAGSGAGAGSGAGAGSGAGAMDPGRYQDLRSHHHHHH
modifications: monomer repeated 6 times; Hybrid of Homo sapein and Bombyx mori
For the molecule B1, in the data set on JHU-022 tumors (out to day 33), the “tumor regrowth / recovery observation” value is reported as “full recovery, with no evidence of a tumor out to day 33”. Besides, in the data set on JHU-022 tumors (over 33 days), the “reduction in tumor size compared to virus in saline” value came to 3 fold. For the same molecule, the “digestion by MMP-2” value with MMP-2 is “is not”. Besides, the “toxicity conclusion of the statistical comparison” value in data set [1] (12 week study, comparison named in the table line) was “SELP itself is not toxic in”. Also, the “p (ANOVA and Bonferroni post-test) Vs Control” value in data set [1] (12 week subchronic toxicity study) is on record as “p > .05”.
